This series concerns the molecule itself. Briefly: thioflavin T fluorescence of fibril formation.

We go through one protein from doi:10.1101/2022.09.20.508729, “Loss of the first β-strand of human prion protein generates an aggregation-competent partially “open” form” (bioRxiv, 2022).

B1: PrP^23 (residues 23-231 of human PrP) (natural protein)
chain: not shown
notes: also called full-length WT PrP
With B1, the binding result is “binds”.
